Data on twelve molecules can be found in US20120034160A1 (AbbVie / Abbott, published 2012).

Broadly, the Kd is the equilibrium constant for the complex coming apart. For orientation: koff means a measure of how fast the partners let go of each other. One may read the kon as the rate constant with which the complex forms.

To fix the notation:
T1: Recombinant Human IL-17 (human, UniProt Q16552 20-155, limits assumed)
T1 construct: bought reagent
T1 sequence (looked up): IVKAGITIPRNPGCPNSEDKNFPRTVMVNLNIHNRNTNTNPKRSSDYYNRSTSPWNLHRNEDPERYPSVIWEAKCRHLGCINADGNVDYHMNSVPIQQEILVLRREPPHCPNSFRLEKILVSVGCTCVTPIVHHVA

B1: DVD1277 (bispecific antibody, human IgG1, kappa)
heavy: not shown
light: EIVLTQSPDFQSVTPKEKVTITCRASQDIGSELHWYQQKPDQPPKLLIKYASHSTSGVPSRFSGSGSGTDFTLTINGLEAEDAGTYYCHQTDSLPYTFGPGTKVDIKRTVAAPDTQVTQSPSSLSASVGDRVTITCITSTDIDVDMNWYQQKPGKPPKLLISQGNTLRPGVPSRFSSSGSGTDFTFTISSLQPEDFATYYCLQSDNLPLTFGQGTKLEIKRTVAAPSVFIFPPSDEQLKSGTASVVCLLNNFYPREAKVQWKVDNALQSGNSQESVTEQDSKDSTYSLSSTLTLSKADYEKHKVYACEVTHQGLSSPVTKSFNRGEC
notes: DVD-Ig, outer AB274, inner AB270, linker set 1; V1 wt hIgG1, V2 kappa; also called DVD1277H; DVD1277L
B2: DVD1287 (bispecific antibody, human IgG1, kappa)
heavy: not shown
light: B1 light with D28N, P43S, T55I, G84A, T91S, S93T, Y96H, P100Q
notes: DVD-Ig, outer AB275, inner AB270, linker set 1; V1 wt hIgG1, V2 kappa; also called DVD1287H; DVD1287L
B3: DVD1291 (bispecific antibody, human IgG1, kappa)
heavy: not shown
light: B1 light with D28N, P43S, T55I, G84A, T91S, S93T, Y96H, P100Q, D114E, Q116T
notes: DVD-Ig, outer AB275, inner AB272, linker set 1; V1 wt hIgG1, V2 kappa; also called DVD1291H; DVD1291L
B4: DVD1281 (bispecific antibody, human IgG1, kappa)
heavy: not shown
light: B1 light with D114E, Q116T
notes: DVD-Ig, outer AB274, inner AB272, linker set 1; V1 wt hIgG1, V2 kappa; also called DVD1281H; DVD1281L
B5: DVD1590 (bispecific antibody, human IgG1, kappa)
heavy: not shown
light: DIQMTQSPSSLSASVGDRVTITCRASSGIISYIDWFQQKPGKAPKRLIYATFDLASGVPSRFSGSGSGTDYTLTISSLQPEDFATYYCRQVGSYPETFGQGTKLEIKRTVAAPSVFIFPPDIQMTQSPSSLSASVGDRVTITCRASGNIHNYLTWYQQTPGKAPKLLIYNAKTLADGVPSRFSGSGSGTDYTFTISSLQPEDIATYYCQHFWSIPYTFGQGTKLQITRTVAAPSVFIFPPSDEQLKSGTASVVCLLNNFYPREAKVQWKVDNALQSGNSQESVTEQDSKDSTYSLSSTLTLSKADYEKHKVYACEVTHQGLSSPVTKSFNRGEC
notes: V1 wt hIgG1, V2 kappa; also called DVD1590H; DVD1590L
B6: DVD1592 (bispecific antibody, human IgG1, kappa)
heavy: not shown
light: B5 light
notes: V1 wt hIgG1, V2 kappa; also called DVD1592H; DVD1592L
B7: DVD1273 (bispecific antibody, human IgG1, kappa)
heavy: not shown
light: EIVLTQSPDFQSVTPKEKVTITCRASQDIGSELHWYQQKPDQPPKLLIKYASHSTSGVPSRFSGSGSGTDFTLTINGLEAEDAGTYYCHQTDSLPYTFGPGTKVDIKRTVAAPDIQMTQSPSSLSASVGDRVTITCRASGNIHNYLTWYQQTPGKAPKLLIYNAKTLADGVPSRFSGSGSGTDYTFTISSLQPEDIATYYCQHFWSIPYTFGQGTKLQITRTVAAPSVFIFPPSDEQLKSGTASVVCLLNNFYPREAKVQWKVDNALQSGNSQESVTEQDSKDSTYSLSSTLTLSKADYEKHKVYACEVTHQGLSSPVTKSFNRGEC
notes: V1 wt hIgG1, V2 kappa; also called DVD1273H; DVD1273L
B8: DVD1283 (bispecific antibody, human IgG1, kappa)
heavy: not shown
light: B7 light with D28N, P43S, T55I, G84A, T91S, S93T, Y96H, P100Q
notes: V1 wt hIgG1, V2 kappa; also called DVD1283H; DVD1283L
B9: DVD1285 (bispecific antibody, human IgG1, kappa)
heavy: not shown
light: B7 light with D28N, P43S, T55I, G84A, T91S, S93T, Y96H, P100Q
notes: V1 wt hIgG1, V2 kappa; also called DVD1285H; DVD1285L
B10: DVD1275 (bispecific antibody, human IgG1, kappa)
heavy: not shown
light: B7 light
notes: V1 wt hIgG1, V2 kappa; also called DVD1275H; DVD1275L
B11: DVD1279 (bispecific antibody, human IgG1, kappa)
heavy: not shown
light: EIVLTQSPDFQSVTPKEKVTITCRASQDIGSELHWYQQKPDQPPKLLIKYASHSTSGVPSRFSGSGSGTDFTLTINGLEAEDAGTYYCHQTDSLPYTFGPGTKVDIKRTVAAPDTVVTQSPAFLSVTPGEKVTITCITSTDIDVDMNWYQQKPDQPPKLLISQGNTLRPGVPSRFSSSGSGTDFTFTISSLEAEDAATYYCLQSDNLPLTFGQGTKLEIKRTVAAPSVFIFPPSDEQLKSGTASVVCLLNNFYPREAKVQWKVDNALQSGNSQESVTEQDSKDSTYSLSSTLTLSKADYEKHKVYACEVTHQGLSSPVTKSFNRGEC
notes: DVD-Ig, outer AB274, inner AB271, linker set 1; V1 wt hIgG1, V2 kappa; also called DVD1279H; DVD1279L
B12: DVD1289 (bispecific antibody, human IgG1, kappa)
heavy: not shown
light: B11 light with D28N, P43S, T55I, G84A, T91S, S93T, Y96H, P100Q
notes: DVD-Ig, outer AB275, inner AB271, linker set 1; V1 wt hIgG1, V2 kappa; also called DVD1289H; DVD1289L

Where a chain is given by its changes, count along the chain named.

The target of the first assay is T2, Recombinant Human IL-1β (human, UniProt P01584 117-269).
T2 construct: bought reagent; also called IL-1B
Nature of the assay: Biacore SPR; C-terminal VD. As for the experimental part: (§1) The BIACORE assay (Biacore, Inc, Piscataway, N.J.) determines the affinity of antibodies or DVD-Ig with kinetic measurements of on-rate and off-rate constants. Binding of antibodies or DVD-Ig to a target antigen (for example, a purified recombinant target antigen) was determined by surface plasmon resonance-based measurements with a Biacore® 1000 or 3000 instrument (Biacore® AB, Uppsala, Sweden) using running HBS-EP (10 mM HEPES [pH 7.4], 150 mM NaCl, 3 mM EDTA, and 0.005% surfactant P20) at 25° C. All chemicals were obtained from Biacore® AB (Uppsala, Sweden) or otherwise from a different source as described in the text. For example, approximately 5000 RU of goat anti-mouse IgG, (Fcγ), fragment specific polyclonal antibody (Pierce Biotechnology Inc, Rockford, Ill.) diluted in 10 mM sodium acetate (pH 4.5) was directly immobilized across a CM5 research grade biosensor chip using a standard amine coupling kit according to manufacturer's instructions and procedures at 25 μg/ml. Unreacted moieties on the biosensor surface were blocked with ethanolamine. Modified carboxymethyl dextran surface in flowcell 2 and 4 was used as a reaction surface. Unmodified carboxymethyl dextran without goat anti-mouse IgG in flow cell 1 and 3 was used as the reference surface. For kinetic analysis, rate equations derived from the 1:1 Langmuir binding model were fitted simultaneously to association and dissociation phases of all eight injections (using global fit analysis) with the use of Biaevaluation 4.0.1 software. Purified antibodies or DVD-Ig were diluted in HEPES-buffered saline for capture across goat anti-mouse IgG specific reaction surfaces. Antibodies or DVD-Ig to be captured as a ligand (25 μg/ml) were injected over reaction matrices at a flow rate of 5 μl/min. The association and dissociation rate constants, kₒₙ (M⁻¹s⁻¹) and koff (s⁻¹) were determined under a continuous flow rate of 25 μl/min. Rate constants were derived by making kinetic binding measurements at different antigen concentrations ranging from 10−200 nM. The equilibrium dissociation constant (M) of the reaction between antibodies or DVD-Igs and the target antigen was then calculated from the kinetic rate constants by the following formula: KD=koff/kₒₙ. Binding was recorded as a function of time and kinetic rate constants are calculated.
On the technique in general: Surface plasmon resonance follows binding to a sensor surface in real time, without labels.
With B1, the dissociation constant Kd turned out to be 2.1 nM, the koff was 0.00049 s⁻¹ and the kon was 230000 M⁻¹ s⁻¹.
The corresponding values for B2 are 1.2 nM, 0.00037 s⁻¹ and 310000 M⁻¹ s⁻¹.
Consider B3, for which the Kd was 2.8 nM, the koff turned out to be 0.00058 s⁻¹ and the association rate constant (kon) turned out to be 210000 M⁻¹ s⁻¹.
The corresponding values for B4 are 2 nM, 0.00058 s⁻¹ and 280000 M⁻¹ s⁻¹.
The corresponding values for B5 are 0.19 nM, 4.6e-05 s⁻¹ and 250000 M⁻¹ s⁻¹.
The corresponding values for B6 are 0.0072 nM, 4.9e-06 s⁻¹ and 690000 M⁻¹ s⁻¹.
With B7, the Kd is 0.27 nM, the koff worked out at 0.00019 s⁻¹ and the kon came to 690000 M⁻¹ s⁻¹.
The corresponding values for B8 are 0.1 nM, 0.00026 s⁻¹ and 2.5e+06 M⁻¹ s⁻¹.
On to B9, for which the dissociation constant (Kd) worked out at 0.24 nM, the koff stood at 0.0002 s⁻¹ and the kon was 820000 M⁻¹ s⁻¹.
The corresponding values for B10 are 0.15 nM, 0.00011 s⁻¹ and 760000 M⁻¹ s⁻¹.
The corresponding values for B11 are 1.4 nM, 0.00045 s⁻¹ and 320000 M⁻¹ s⁻¹.
The corresponding values for B12 are 1.3 nM, 0.00048 s⁻¹ and 370000 M⁻¹ s⁻¹.

Another assay has as its target T1, Recombinant Human IL-17. Description: Biacore SPR; N-terminal VD. Here is the method: as §1
On to B1, for which the Kd worked out at 0.16 nM, the koff worked out at 2.2e-05 s⁻¹ and the association rate constant (kon) was 130000 M⁻¹ s⁻¹.
As for B2, the dissociation constant Kd was 0.3 nM, the koff stood at 4.7e-05 s⁻¹ and the kon came to 160000 M⁻¹ s⁻¹.
The corresponding values for B3 are 0.048 nM, 6e-07 s⁻¹ and 12000 M⁻¹ s⁻¹.
The corresponding values for B4 are 0.1 nM, 2e-05 s⁻¹ and 200000 M⁻¹ s⁻¹.
As to B5, the Kd was found to be 0.0018 nM, the koff was determined as 7e-06 s⁻¹ and the on-rate constant (kon) worked out at 3.8e+06 M⁻¹ s⁻¹.
The corresponding values for B6 are 0.0064 nM, 2e-05 s⁻¹ and 3.2e+06 M⁻¹ s⁻¹.
Consider B7, for which the Kd is 0.2 nM, the koff is 2.2e-05 s⁻¹ and the kon turned out to be 110000 M⁻¹ s⁻¹.
The corresponding values for B8 are 0.46 nM, 5.8e-05 s⁻¹ and 130000 M⁻¹ s⁻¹.
With B9, the Kd amounted to 0.39 nM, the koff came out at 5.8e-05 s⁻¹ and the kon amounted to 150000 M⁻¹ s⁻¹.
B10: the Kd was determined as 0.15 nM, the koff amounted to 2.1e-05 s⁻¹ and the kon turned out to be 140000 M⁻¹ s⁻¹.
The corresponding values for B11 are 0.12 nM, 2.3e-05 s⁻¹ and 190000 M⁻¹ s⁻¹.
The corresponding values for B12 are 0.4 nM, 5.6e-05 s⁻¹ and 140000 M⁻¹ s⁻¹.
